Experimental data as given in the supplement of paper PMC9170038.

System: MS2 coat protein
Assay: apparent KD of MS2 coat protein; higher = weaker reporter binding
Conditions: Eterna round: R107
Procedure: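 RNA-MaP round R107: designed RNA switches with theophylline, tryptophan, arginine or FMN aptamers are transcribed on-chip within common flanks. They are titrated with SNAP-549-labelled MS2 coat protein in RNA-MaP buffer (100 mM Tris pH 7.5, 80 mM KCl, 4 mM MgCl2), without ligand or with the indicated ligand. Median apparent KD per design.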

[1] = input ligand: theophylline 20 uM
[2] = input ligand: tryptophan 2.4 mM
[3] = input ligand: theophylline 2 mM

| Sequence | apparent KD of MS2 coat protein (input ligand: arginine 13.2 mM) | apparent KD of MS2 coat protein [1] | apparent KD of MS2 coat protein [2] | apparent KD of MS2 coat protein (input ligand: none) | apparent KD of MS2 coat protein [3] |
| --- | --- | --- | --- | --- | --- |
| UACAUGAGGAUCACCCAUGUAUGAAUGGAUACCAGAUAAAAUAAGGUCCCUUGGCAGCUAGUGAAUCGAGGGUGGGUAUCAUGUU [#14 Exclusion-TheophyllineA] | 10.9 nM | 13.7 nM | 9.89 nM |  |  |
| ACAUGAGGAUCACCCAUGUAAUCAUCAGAAGGAGCGUGGAAUAACACAGGUAGGUCGCUGAUGUUAUGUUAAAAUGGUUCGUGAA [JR_ExcArginiA_Sub002] | 18.8 nM | 23.7 nM | 22.5 nM | 19.1 nM | 17.3 nM |
| UGUAAUGGGAUCAACCCAUGAGAGUCUGAAGGAGCGAUCGUAAGAUCAGGUAGGUCGCGGGAGACAUGAGGAUCACCCAUGUAUA [#23 Exclusion - Arginine A] | 27.2 nM | 46.3 nM | 39.7 nM | 41 nM | 44.3 nM |
| AUAUCAUAGAGUGAUACCAGACUACAUGAGGAUCACCCAUGUGACAUUUAAAUAUCAUUUGUCCCUUGGCAGCACAUUAAGUACA [JR_Nu_ExcTheophyB_Sub020] | 50.6 nM | 79.8 nM | 61.6 nM |  |  |
| AUAACAUGAGGAUCACCCAUGUAAGCAGAUACCAGCUAGGAAACUAGCCCUUGGCAGCUGCAAGGUGAUCCUGCUGCCAAGGUAU [(M1)-(M2)-(T1)-(T2)-(M)'-(T)'_Design7] | 117 nM | 187 nM | 209 nM | 233 nM | 130 nM |
| UCCAUCGGCGGAAGCCGAUGGUUUACAGAAGGAGCGUAGGAAACUACAGGUAGGUCGCUGGACAUGAGGAUCACCCAUGUGUUUU [SSAA #12] | 24.4 nM | 22.4 nM | 20.8 nM | 26.5 nM | 30 nM |
| UGGGAAGGAGGAAGGAGCGCCAUAAGGGUGACAGUCUGGGUACAUGAGGAUCACCCAUGUAGGCAGGUAGGUCGCCUCGCUCUCA [XArg-B15] | 26.2 nM | 12.8 nM | 12.5 nM | 9.53 nM | 14.3 nM |
| CUAUAAGUACCGGUCCUCAGAUCCUCAUGACGAGGACCGGUACGGCCGCCACUCGAAACAUGAGGAUCACCCAUGUAAUAACAUU [Brourdmod22] | 18.5 nM | 30.1 nM |  |  | 24.9 nM |
| GUGACUUACGGGCGCCAUUUGUGAUAGGAAGGAGCGGCGAAAUAGCCAGGUAGGUCGCCUAUACAUGAGGAUCACCCAUGUCACC [Veveatonus] | 45.1 nM | 64.9 nM | 72.6 nM | 105 nM | 84.6 nM |
| AGGACAUCGGGAAGGAGCGCAUCCAAACCACACAUGAGGAUCACCCAUGUAUAAAUAUGCAUGCAGGUAGGUCGCCCGGUGUCUC [Veaza] | 77 nM | 140 nM | 108 nM | 109 nM | 137 nM |
| GUAUAUUGAAAACAAUAUACAGUGGGUGAACGAGGACCGGUACGGCCGCCACUCGGACAUGAGGAUCACCCAUGUCCAUGUGAAA [AstrosExyTryA#8] | 15.1 nM | 17.1 nM |  |  | 17.7 nM |
| UAAUAAGUACCGGUUCUCAGAUCCUCAUGUCGAGGACCGGUACGGCCGCCACUCGAAACAUGAGGAUCACCCAUGUAAUAAUAAU [#07 Exclusion Tryptophan A] | 23.5 nM | 67.1 nM |  |  | 54.5 nM |
| UGGGUCGGAUGAGGAAAUUGUCCGACGUAUCGAGGACCGGUACGGCCGCCACUCGGUUGUACAUGAGGAUCACCCAUGUCAGGGU [#1 Same State - Tryptophan A Attempt #15 (HarryS)] | 194 nM | 269 nM | 128 nM | 218 nM | 327 nM |
| GAGCACAUGAGGAUCACCCAUGUUGGCACACGAGGACCGGUACGGCCGCCACUCGCGGCGGGAAUAACUUUGCGCAGAUGAUGGG [theeternabot_sameState_MS2_Trp_A_50] | 27.5 nM | 37.5 nM | 21.4 nM | 23.9 nM | 23.7 nM |
| UAUCCACAUGAGGAUCACCCAUGUAGGGAAGGAGCGGUGGAUGCACCAGGUAGGUCGCCUUGCUGAGGACAGCCGGUGGAUUCGU [Exclusion - Arginine A (Freestyle 27)] | 29 nM | 59.6 nM | 32.8 nM | 31.9 nM | 46.7 nM |
| ACCAGCACACAUGAUACCAGCGACAUGAGGAUCACCCAUGUACGGCGUGUAUCGAAAGGUUGCCCUUGGCAGCAUGAUAGUGCUA [Ratiarla] | 14.5 nM | 28.2 nM | 12.8 nM |  |  |
| ACAUGAGGAUCACCCAUGUGAAGCAGGGUACGAGGACCGGUACGGCCGCCACUCGAGGAUUAUACCGAGUGAAUGGCAACGAUGU [whbob_Ex_trypto A_2s18] | 13.2 nM | 21.8 nM | 15.2 nM | 14.1 nM | 17.8 nM |
| GUCUUGGGAUCGGCCGCCACUACAUGAGGAUCACCCAUGUGGACAAAUAGGGUUUUUAAGCUCGGUAGGACCGGGAUUCGGACAU [Marasosoge] | 12.9 nM | 16.7 nM |  |  | 16.3 nM |
| AGAGUCUAGUCGGCCGCCACUCAUGUCCAAAGGACAUGAGGAUCACCCAUGUACCAAUGGUACAUGAGGACCGGGACUGGACUCA [Omei Tryp B SS C v2] | 227 nM | 343 nM |  |  | 120 nM |
